Experimental data as given in patent US7083777B1, “Immunomodulating polymers” (priority 1999, dated 2006).

Experiments:
human T cells = assay type: cell-based; conditions: 20 μg/ml, 6 days post-incubation
B. fragilis [1] = test: Rat model of intraabdominal sepsis, abscess formation after B. fragilis challenge; assay type: in vivo; conditions: 50 μg dose
[2] = 0.01% solution of about 1500 kDa HA; model normally produces more than 70% adhesions; cited from earlier work
B. fragilis [3] = test: Protection against abscess formation by recombinant cytokine given intracardially at challenge; assay type: in vivo, rat; conditions: 100 pg intracardiac at time of challenge, 10^8 cfu B. fragilis; Experiment A
B. fragilis [4] = test: IL-10-mediated protection against abscess formation; assay type: in vivo, rat
Description: In order to examine further the role of IL-10 in the abscess model, male Wistar rats (150 g) were treated with recombinant IL-10, anti-IL-10, or isotype antibody control beginning on the day of challenge with 1×10^8 cfu B. fragilils. Further comparison was made using a group treated with Streptococcus pneumoniae type I CP alone or together with anti-IL-10. Animals were sacrificed and examined six days after challenge.

[5] = 0.2 μg i.p. at 0, 24, 48 and 72 hours relative to challenge

Molecule: poly-L-lysine
- T cell activation (in words) (human T cells): did not stimulate T cell proliferation
- Protection against abscess formation vs saline (in words) (B. fragilis [1]): did not protect against abscess formation

Molecule: hyaluronic acid [HA]
- prevention of severe intra-abdominal adhesions (in words) [2]: effectively prevents all severe intra-abdominal adhesions

B1: IL-4: interleukin 4 given at 100 pg as comparison (protein, UniProt P05112 25-153, looked up)
Interleukin-4: HKCDITLQEIIKTLNSLTEQKTLCTELTVTDIFAASKNTTEKETFCRAATVLRQFYSHHEKDTRCLGATAQQFHRHKQLIRFLKRLDRNLWGLAGLNSCPVKEANQSTLENFLERLKTIMREKYSKCSS
- Abscess formation (%) (B. fragilis [3]): 75%

B2: recombinant IL-10: recombinant interleukin-10 (protein, UniProt P22301 19-178, looked up)
Interleukin-10: SPGQGTQSENSCTHFPGNLPNMLRDLRDAFSRVKTFFQMKDQLDNLLLKESLLEDFKGYLGCQALSEMIQFYLEEVMPQAENQDPDIKAHVNSLGENLKTLRLRLRRCHRFLPCENKSKAVEQVKNAFNKLQEKGIYKAMSEFDIFINYIEAYMTMKIRN
- Protection against abscess formation vs isotype control antibody (in words) (B. fragilis [4]; 0.2 μg i.p.): protected from abscess formation
- Abscess formation (%) (B. fragilis [4]; [5]): 13%
- No. animals with abscess/total (B. fragilis [4]; [5]): 2/16
